Assay results reported in patent EP4137518A1 (Inhibrx, Inc., dated 2023).

Key:
[1] = target: T1, human CD47, cell surface (Raji, CCRF-CEM, Daudi cells) (human, UniProt Q08722 19-323); experiment: flow cytometry on Raji cells; apparent KD from non-linear fit of median fluorescence intensities
T1 construct: Endogenous CD47 on human cell lines; also called cell surface CD47; endogenous (cell surface) form of CD47

[2] = target: T1, human CD47, cell surface (Raji, …); experiment: summary of the binding and blocking assays

| Kd [1] | binding result [2] | Binder |
| --- | --- | --- |
| 3.79 nM | – | B6H12 (antibody, V domains shown) VH: EVQLVESGGDLVKPGGSLKLSCAASGFTFSGYGMSWVRQTPDKRLEWVATITSGGTYTYYPDSVKGRFTISRDNAKNTLYLQIDSLKSEDTAIYFCARSLAGNAMDYWGQGTSVTVSS VL: DIVMTQSPATLSVTPGDRVSLSCRASQTISDYLHWYQQKSHESPRLLIKFASQSISGIPSRFSGSGSGSDFTLSINSVEPEDVGVYYCQNGHGFPRTFGGGTKLEIK |
| – | binds | 9E4 antibody (murine) (antibody, mouse IgG1, V domains shown) VH: EVQLRQSGPELVKPGASVKISCKASGYSFTDYYMYWVKQSRVRSLAWIGRINPYTGATGYDQNFKDKASLIVDKSSSTAYMELRSLTSEDSAVYYCARGRNRYDGWFAYWGQGTLVTV VL: EIQMTQTTSSLSASLGDRVTISCRASQDISNYLNWYQQKPDGTVKLLIYYTSRLHSGVPSRFSGSGSGTDYSLTISNLDQEDIATYFCQQGNALPPTFGGGTNLEIK |
